From doi:10.1101/312850 (bioRxiv, 2018)

Target: T1, E. coli methionine aminopeptidase (MetAP), type-1a, N-terminal poly-His-tagged (E. coli, UniProt P0AE18 1-264)
T1 sequence (looked up): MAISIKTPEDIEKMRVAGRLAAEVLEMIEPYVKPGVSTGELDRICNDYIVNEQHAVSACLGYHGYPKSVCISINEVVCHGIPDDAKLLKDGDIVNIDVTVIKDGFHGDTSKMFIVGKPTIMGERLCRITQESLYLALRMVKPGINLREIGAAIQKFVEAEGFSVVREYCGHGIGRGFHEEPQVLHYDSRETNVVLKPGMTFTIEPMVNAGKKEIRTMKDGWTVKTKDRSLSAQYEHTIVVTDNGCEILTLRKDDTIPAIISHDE
Assay: cryo-EM structure

binding result: binds
B1: E. coli peptide deformylase (PDF), N-terminal His6-tagged (enzyme, UniProt P0A6K3 1-169, looked up)
chain: MSVLQVLHIPDERLRKVAKPVEEVNAEIQRIVDDMFETMYAEEGIGLAATQVDIHQRIIVIDVSENRDERLVLINPELLEKSGETGIEEGCLSIPEQRALVPRAEKVKIRALDRDGKPFELEADGLLAICIQHEMDHLVGKLFMDYLSPLKQQRIRQKVEKLDRLKARA
